Results on two molecules are retold here after US9260754B2, “Connexin mutation detection for lymphatic variation and disease” (University of Pittsburgh—Of the Commonwealth System of …, priority 2010, dated 2016).

One assay relates to HeLa cells. Nature of the assay: Calcein AM scrape loading and dye transfer in stably transfected HeLa cells. Format: cell-based, human. To be noted: for dye transfer: ratio, rate normalized to untransfected HeLa cells, Calcein AM scrape loading, 10 min, stably transfected HeLa, mean ± SEM. The procedure: A confluent monolayer of HeLa cells (untransfected and stably transfected, as described above) was grown in DMEM with 10% FBS in coverslip bottom plates (MatTek) and placed in a temperature controlled microincubator (Zeiss). A 10×, 0.4 NA objective was used to collect DIC and GFP images every 5 seconds for 10 minutes without changing media. A pipette loaded with 1 μl Calcein AM (Invitrogen), a gap junction permissive dye with molecular weight 662, −4 charge when intracellular and fluorescent, was used to create a scrape across the monolayer. At least 5 replicate dishes were analyzed on the same day, and WT hCx47 expressing HeLas were grown and assayed as a concurrent control; assays were performed on at least 2 different batches of HeLa cells on different days. Quantitation of the rate of spread was calculated using MetaMorph, by obtaining integrated intensity at the 10th time point, within the first minute of imaging, and then at the endpoint at 10 min, and subtracting the initial intensity from that at the endpoint. Results are reported as mean and SEM, and tested for significance (p<0.05) using an unpaired Student's t-test.
In these mutants, Cx47 appears to concentrate in the ER. Unlike electrophysiologic measurements, dye transfer assays are used to assess GJIC of relatively large molecules. We also found significant differences in GJIC in HeLa cells overexpressing Cx47 lymphedema associated mutations by assessing rates of dye transfer in a conventional scrape assay using stably transfected HeLa cells normalized to rates in untransfected HeLa cells (FIG. 7D; Table 3). […] It is not surprising that the mutants show some differences in GJIC between the electrophysiologic and dye transfer assays given that they are designed to measure different kinds of transport and that Cx channel permeability is now believed to be governed by factors including molecular shape, charge and size, in addition to channel conformation and composition.

In assay [1] the test system is Adult human dermal lymphatic microvascular endothelial cells. In words: Lucifer yellow microinjection dye spread in lymphatic endothelial cells expressing mutant constructs. Format: cell-based. To be noted: Dye spread to tiers of LECs after 2 min; Lucifer yellow microinjection; mean ± SEM. The procedure: Adult human dermal lymphatic microvascular endothelial cells were cultured in EGM™-2 MV (both from Lonza). Cells were electroporated with 2 μg cDNA of the EGFP tagged mutant constructs and then selected with G418 as described above. Cells were microinjected using a combination (1:4 ratio) of 70 kd Texas Red dextran (Invitrogen) to mark injected cell for reference and Lucifer yellow, a known gap junction permeable dye (m.w. 443, −2 charge), to assess change in extent of spread (Abbaci M, et al. Advantages and limitations of commonly used methods to assay the molecular permeability of gap junctional intercellular communication. Biotechniques 2008; 45:33-52, 6-62). All cells were injected using constant conditions and cells were scored for dye spread in tiers from reference cell, using constant exposure time and thresholding, and were imaged using a Nikon TE2000 with temperature controlled motorized stage and Qlmaging Retiga CCD camera. Images were obtained using differential interference contrast (DIC) and standard filters for EGFP (identify expression of mutation), DAPI (for Lucifer yellow) and dsRed (for dextran) preinjection, immediately post-injection and 2 min after injection. Results were calculated as mean SEM and statistical significance was determined in comparison to WT-hCx47-EGFP expressing cells using a Mann-Whitney Test.

B1: G146S: Cx47 missense mutant G146S (436G>A), intracellular loop, construct expressed in HeLa cells or LECs (protein, listed as Homo sapiens)
chain: MSWSFLTRLLEEIHNHSTFVGKVWLTVLVVFRIVLTAVGGEAIYSDEQAKFTCNTRQPGCDNVCYDAFAPLSHVRFWVFQIVVISTPSVMYLGYAVHRLARASEQERRRALRRRPGPRRAPRAHLPPPHAGWPEPADLGEEEPMLSLGEEEEEEETGAAEGAGEEAEEAGAEEACTKAVGADGKAAGTPGPTGQHDGRRRIQREGLMRVYVAQLVARAAFEVAFLVGQYLLYGFEVRPFFPCSRQPCPHVVDCFVSRPTEKTVFLLVMYVVSCLCLLLNLCEMAHLGLGSAQDAVRGRRGPPASAPAPAPRPPPCAFPAAAAGLACPPDYSLVVRAAERARAHDQNLANLALQALRDGAAAGDRDRDSSPCVGLPAASRGPPRAGAPASRTGSATSAGTVGEQGRPGTHERPGAKPRAGSEKGSASSRDGKTTVWI
In the case of B1, the dye transfer with HeLa cells is 1.05. Also, in the assay on HeLa cells (stably transfected HeLa cells, scrape assay), the “Calcein AM dye transfer compared to WT-hCx47 transfected HeLa cells (in words)” value is “less”. Further, the LEC spread in assay [1] came out at 2.0 tiers.

B2: WT-hCx47: human wild type Cx47 construct in bicistronic pIRES2-EGFP vector, expressed in HeLa cells or LECs (protein, UniProt Q5T442 1-439, looked up)
Gap junction gamma-2 protein: MTNMSWSFLTRLLEEIHNHSTFVGKVWLTVLVVFRIVLTAVGGEAIYSDEQAKFTCNTRQPGCDNVCYDAFAPLSHVRFWVFQIVVISTPSVMYLGYAVHRLARASEQERRRALRRRPGPRRAPRAHLPPPHAGWPEPADLGEEEPMLGLGEEEEEEETGAAEGAGEEAEEAGAEEACTKAVGADGKAAGTPGPTGQHDGRRRIQREGLMRVYVAQLVARAAFEVAFLVGQYLLYGFEVRPFFPCSRQPCPHVVDCFVSRPTEKTVFLLVMYVVSCLCLLLNLCEMAHLGLGSAQDAVRGRRGPPASAPAPAPRPPPCAFPAAAAGLACPPDYSLVVRAAERARAHDQNLANLALQALRDGAAAGDRDRDSSPCVGLPAASRGPPRAGAPASRTGSATSAGTVGEQGRPGTHERPGAKPRAGSEKGSASSRDGKTTVWI
B2: in the assay on HeLa cells, the dye transfer is given as 1.80. The LEC spread in assay [1] came to 1.4 tiers.
